One assay concerns the target T1, GST-fused kindlin-1 (Homo sapiens (Human), UniProt Q9BQL6).
T1 chain: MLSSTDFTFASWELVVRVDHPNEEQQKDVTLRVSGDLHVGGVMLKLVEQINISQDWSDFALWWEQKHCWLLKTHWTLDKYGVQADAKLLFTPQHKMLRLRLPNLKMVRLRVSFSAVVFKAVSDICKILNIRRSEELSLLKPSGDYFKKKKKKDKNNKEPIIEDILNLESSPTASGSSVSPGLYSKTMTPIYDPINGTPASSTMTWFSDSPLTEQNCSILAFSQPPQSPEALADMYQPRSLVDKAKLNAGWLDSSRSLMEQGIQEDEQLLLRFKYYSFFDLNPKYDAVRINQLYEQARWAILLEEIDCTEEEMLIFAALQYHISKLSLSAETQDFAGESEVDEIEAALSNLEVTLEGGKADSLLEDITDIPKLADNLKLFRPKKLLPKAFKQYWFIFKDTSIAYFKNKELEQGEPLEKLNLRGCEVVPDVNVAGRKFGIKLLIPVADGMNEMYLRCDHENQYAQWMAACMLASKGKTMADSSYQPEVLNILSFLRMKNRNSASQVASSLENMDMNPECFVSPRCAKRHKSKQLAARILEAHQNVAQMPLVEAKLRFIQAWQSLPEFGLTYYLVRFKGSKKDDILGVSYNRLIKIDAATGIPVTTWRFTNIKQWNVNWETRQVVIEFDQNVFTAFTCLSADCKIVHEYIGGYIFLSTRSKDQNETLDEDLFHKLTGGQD
The assay is described as follows: GST pull-down.

Assay [1] has as its target T2, GST-fused integrin β1 cytoplasmic tail (Homo sapiens (Human), UniProt P05556).
T2 chain: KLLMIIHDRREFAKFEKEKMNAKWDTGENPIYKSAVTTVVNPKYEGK
Kind of assay: GST pull-down.

In assay [2] the target is T3, N-terminus of sharpin (SH-N, 1-217 amino acids), his-tagged (UniProt Q9H0F6 1-217).
T3 construct: also called His-SH-N; N-terminal fragment of sharpin; source: E. coli Rosetta DE3, purified (Ni-NTA agarose)
T3 sequence (looked up): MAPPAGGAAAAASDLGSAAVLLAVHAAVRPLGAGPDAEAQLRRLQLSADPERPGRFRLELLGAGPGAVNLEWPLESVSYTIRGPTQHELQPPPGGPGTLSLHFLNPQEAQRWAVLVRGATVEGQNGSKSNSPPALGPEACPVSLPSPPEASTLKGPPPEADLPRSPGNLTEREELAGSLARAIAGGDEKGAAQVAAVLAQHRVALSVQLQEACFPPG
Kind of assay: SPR; Biacore 8K; N-terminal fragment of sharpin coupled to a CM5 chip; integrin β1 CT or β3 CT injected at 2.5, 5, 10, 20 and 40 μM; room temperature, PBS. As to conditions: both partners purified. (SPR reads the build-up and loss of mass on a sensor chip optically.)

We go through 3 molecules from PMC6700787, “Sharpin suppresses β1-integrin activation by complexing with the β1 tail and kindlin-1” (Cell Communication and Signaling : CCS, 2019).

B1: C-terminus of sharpin (SH-C, 217-387 amino acids), his-tagged (protein)
chain: GPIRLQVTLEDAASAASAASSAHVALQVHPHCTVAALQEQVFSELGFPPAVQRWVIGRCLCVPERSLASYGVRQDGDPAFLYLLSAPREAPATGPSPQHPQKMDGELGRLFPPSLGLPPGPQPAASSLPSPLQPSWSCPSCTFINAPDRPGCEMCSTQRPCTWDPLAAAST
As for B1, the figures for the binding result (with GST-fused kindlin-1; in assay [1]) were “binds” and “no binding”, respectively.

B2: his-tagged kindlin-1 (protein)
chain: MLSSTDFTFASWELVVRVDHPNEEQQKDVTLRVSGDLHVGGVMLKLVEQINISQDWSDFALWWEQKHCWLLKTHWTLDKYGVQADAKLLFTPQHKMLRLRLPNLKMVRLRVSFSAVVFKAVSDICKILNIRRSEELSLLKPSGDYFKKKKKKDKNNKEPIIEDILNLESSPTASGSSVSPGLYSKTMTPIYDPINGTPASSTMTWFSDSPLTEQNCSILAFSQPPQSPEALADMYQPRSLVDKAKLNAGWLDSSRSLMEQGIQEDEQLLLRFKYYSFFDLNPKYDAVRINQLYEQARWAILLEEIDCTEEEMLIFAALQYHISKLSLSAETQDFAGESEVDEIEAALSNLEVTLEGGKADSLLEDITDIPKLADNLKLFRPKKLLPKAFKQYWFIFKDTSIAYFKNKELEQGEPLEKLNLRGCEVVPDVNVAGRKFGIKLLIPVADGMNEMYLRCDHENQYAQWMAACMLASKGKTMADSSYQPEVLNILSFLRMKNRNSASQVASSLENMDMNPECFVSPRCAKRHKSKQLAARILEAHQNVAQMPLVEAKLRFIQAWQSLPEFGLTYYLVRFKGSKKDDILGVSYNRLIKIDAATGIPVTTWRFTNIKQWNVNWETRQVVIEFDQNVFTAFTCLSADCKIVHEYIGGYIFLSTRSKDQNETLDEDLFHKLTGGQD
Turning to B2, the binding result in assay [1] is listed as “binds”.

B3: integrin β1 CT protein (NMR and SPR samples) (domain or fragment, UniProt P05556 752-798, looked up)
chain: KLLMIIHDRREFAKFEKEKMNAKWDTGENPIYKSAVTTVVNPKYEGK
notes: Integrin β1 cytoplasmic tail (CT); 15N-labelled in the HSQC experiment, unlabelled analyte in SPR; The only vector named for the tails is pGST-1; also called ^15N-labeled β1 CT; the integrin β1 CT protein
As for B3, binding in assay [2] was put at a Kd of 40 µM.
